The source of these data is the supplement of paper PMC7877785.

This series can be described thus: self-splicing fitness, log relative to wild type (ln ratio); higher = more splicing; Tetrahymena group I intron in knt gene, E. coli kanamycin selection, DiMSum; sequences stand for … in CUCUCU…GGAGGGAAAAGUUAUCAGGCAUGCACCUGGUAGCUAGUCUUUAAACCAAUAGAUUGCAUCGGUUUAAAAGGCAAGACCGUCAAAUUGCGGGAAAGGGGUCAACAGCCGUUCAGUACCAAGUCUCAGGGGAAACUUUGAGAUGGCCUUGCAAAGGGUAUGGUAAUAAGCUGACGGACAUGGUCCUAACCACGCAGCCAAGUCCUAAGUCAACAGAUCUUCUGUUGAUAUGGAUGCAGUUCACAGACUAAAUGUCGGUCGGGGAAGAUGUAUUCUUCUCAUAAGAUAUAGUCGGACCUCUCCUUAAUGGGAGCUAGCGGAUGAAGUGAUGCAACACUGGAGCCGCUGGGAACUAAUUUGUAUGCGAAAGUAUAUUGAUUAGUUUUGGAGUACUCGUGGUCG
A digest of the protocol:
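Six replicate transformations of E. coli BL21(DE3) with a pET-22b(+) library were grown overnight at 37°C or 30°C. The library randomised all eight P1ex-region intron nucleotides, the intron lying in the knt kanamycin-resistance gene, and plates were LB agar with or without 25 μg/mL kanamycin plus 100 μg/mL carbenicillin, 50 μM IPTG and 0.2% rhamnose. Pooled colonies were amplicon-sequenced on an Illumina HiSeq 2500, and fitness is the DiMSum error-weighted combination of wild-type-normalised replicate fold changes, kanamycin versus none.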

± gives the uncertainty stated by the source.

GGUAAGCAAUAUUACGUUUU: the “self-splicing fitness (ln)” value was -2.02 ± 0.12 (30 °C) and -0.929 ± 0.14 (37 °C).
For CCAAAGCAAUAUUACGUAGC the same measures were -3.81 ± 0.16 and -2.48 ± 0.16.
In the case of CUAGAGCAAUAUUACGUAAC, the “self-splicing fitness (ln)” value (30 °C) was -4.96 ± 0.38 and the “self-splicing fitness (ln)” value (37 °C) is -2.32 ± 0.19.
Take CAUCAGCAAUAUUACGUAUU: the “self-splicing fitness (ln)” value is -2.15 ± 0.097 (30 °C) and -1.65 ± 0.11 (37 °C).
For UCUGAGCAAUAUUACGGUGG the same measures were -1.29 ± 0.084 and -0.277 ± 0.1.
For GUAAAGCAAUAUUACGCGAC the same measures were -0.509 ± 0.26 and 1.71 ± 0.45.
As to CAUCAGCAAUAUUACGUACG, the “self-splicing fitness (ln)” value is 0.0534 ± 0.077 (30 °C) and -0.0455 ± 0.097 (37 °C).
CCGCAGCAAUAUUACGUUAU: the “self-splicing fitness (ln)” value runs as follows: (30 °C) -3.43 ± 0.17; (37 °C) -2.77 ± 0.19.
On to CCUUAGCAAUAUUACGGGAA, for which the “self-splicing fitness (ln)” value is -3.02 ± 0.18 (30 °C) and -2.76 ± 0.19 (37 °C).
As to UCAUAGCAAUAUUACGGCCA, the “self-splicing fitness (ln)” value (37 °C) is -0.442 ± 0.46.
Consider CUAGAGCAAUAUUACGCAUU, for which the “self-splicing fitness (ln)” value is -3.2 ± 0.18 (30 °C) and -2.2 ± 0.25 (37 °C).
Consider UAUUAGCAAUAUUACGGACU, for which the “self-splicing fitness (ln)” value reads like this: (30 °C) -2.33 ± 0.31; (37 °C) -1.47 ± 0.4.
As to AUGUAGCAAUAUUACGGUAG, the “self-splicing fitness (ln)” value is, setting by setting: (30 °C) -4.38 ± 0.32; (37 °C) -3.33 ± 0.42.
Turning to CGAUAGCAAUAUUACGAUUG, the “self-splicing fitness (ln)” value reads like this: (30 °C) -2.27 ± 0.12; (37 °C) -1.2 ± 0.12.
Take CACAAGCAAUAUUACGCUCA: the “self-splicing fitness (ln)” value runs as follows: (30 °C) -1.45 ± 0.093; (37 °C) -0.209 ± 0.097.
On to CAGCAGCAAUAUUACGAAAC, for which the “self-splicing fitness (ln)” value (30 °C) is -3.65 ± 0.23.
Consider CACUAGCAAUAUUACGUUUU, for which the “self-splicing fitness (ln)” value (30 °C) was -2.97 ± 0.12 and the “self-splicing fitness (ln)” value (37 °C) is -2.4 ± 0.13.
CUUAAGCAAUAUUACGGACU: the “self-splicing fitness (ln)” value by setting is: (30 °C) -3.14 ± 0.15; (37 °C) -1.62 ± 0.17.
UCGUAGCAAUAUUACGGGAU: the “self-splicing fitness (ln)” value is, setting by setting: (30 °C) -4.41 ± 0.46; (37 °C) -1.99 ± 0.31.
Regarding ACCCAGCAAUAUUACGGACG, the “self-splicing fitness (ln)” value is, setting by setting: (30 °C) -1.1 ± 0.07; (37 °C) -0.9 ± 0.08.
For GCACAGCAAUAUUACGGAAG the same measures were -3.04 ± 0.13 and -2.11 ± 0.13.
The matching figures for AGUCAGCAAUAUUACGCGGA: -3.11 ± 0.26 and -1.79 ± 0.18.
The matching figures for GUAAAGCAAUAUUACGCCGA: -0.859 ± 0.11 and -0.839 ± 0.14.
For ACCGAGCAAUAUUACGUCUU, the “self-splicing fitness (ln)” value is -2.91 ± 0.12 (30 °C) and -2.22 ± 0.13 (37 °C).
Turning to UAGAAGCAAUAUUACGAGCC, where the note is “37 °C”, the “self-splicing fitness (ln)” value was -2.23 ± 0.26.
CUCAAGCAAUAUUACGAUUA: the “self-splicing fitness (ln)” value was -3.59 ± 0.47 (30 °C) and -2.37 ± 0.23 (37 °C).
For ACCCAGCAAUAUUACGAUAA the same measures were -2.15 ± 0.091 and -0.0251 ± 0.098.
Turning to UCAAAGCAAUAUUACGUGCC, the “self-splicing fitness (ln)” value runs as follows: (30 °C) -2.35 ± 0.18; (37 °C) -1.57 ± 0.39.
As for CCACAGCAAUAUUACGAGCA, the “self-splicing fitness (ln)” value (30 °C) was -3.6 ± 0.18 and the “self-splicing fitness (ln)” value (37 °C) was -2.89 ± 0.19.
For UGGGAGCAAUAUUACGAACA the same measures were -1.33 ± 0.088 and -1.02 ± 0.091.
For CCCCAGCAAUAUUACGCCUA the same measures were -2.61 ± 0.18 and -2.89 ± 0.32.
Turning to ACAAAGCAAUAUUACGGCUG, the “self-splicing fitness (ln)” value was -0.524 ± 0.069 (30 °C) and -0.277 ± 0.088 (37 °C).
For CUACAGCAAUAUUACGCCGG the same measures were -2.19 ± 0.13 and -1.26 ± 0.13.
For AUGCAGCAAUAUUACGCCGU the same measures were -1.25 ± 0.069 and -0.859 ± 0.083.
For GGCUAGCAAUAUUACGCGUC the same measures were -2.06 ± 0.24 and 0.0137 ± 0.14.
On to CCAGAGCAAUAUUACGGUCC, for which the “self-splicing fitness (ln)” value (30 °C) is -3.93 ± 0.33 and the “self-splicing fitness (ln)” value (37 °C) is -1.51 ± 0.34.
The matching figures for AGGUAGCAAUAUUACGUGGG: -3.908 ± 0.027 and -2.98 ± 0.039.
Regarding UUACAGCAAUAUUACGCGGC, the “self-splicing fitness (ln)” value runs as follows: (30 °C) -2.62 ± 0.14; (37 °C) -2.03 ± 0.18.
